Data as given in the DeepSol protein solubility set.

Test: soluble on expression in E. coli; label from the status in PepcDB or PDB records

| Sequence | soluble on expression in E. coli |
| --- | --- |
| MGSDKIHHHHHHMNYKTSIADNVTEKEISEKLGISLSTVKRSVSRLKNNKNLIDKVISNNVIAEGSYKTYNKYHVAKCNEDFFYIYNSFFNDDMNIAKASERIKIKNFLLKLKAICKKETNKYISESPYMDGLNKAELSKKLGIIDTKTLNKYLEMAVNAGQIKYITNGLLILNKSIIPDFKKDDTDTRIYHIIYDWCIDNDVVPPDRNDEIKIMEDGSVRRKNSLLLEIAGKLGYMKDEEIRSLLTNRITSEEITLEYIAKVLNIKNKKKKEEIEWPPIIMLD | not soluble |
| MIGILIPVHNEEQLLDLCLETIKQAAAHPALKGEQVEVLVVLDSCTDRSAEIARAHGVMILEVTARNVGQARAEGAAFLLDRGARWLACTDGDSSVASDWLAEQLALDADAVCGTVTLGDWNNDISAPARAAYLKHYQQRDGHRHIHGANLGVSSIAYISAGGFPSLTCHEDVHLVRQLELIGARIAWSCRPRVTTSTRLNSKARGGFGDYLSSLNALEHHHHHH | not soluble |
| DRLTVVKQYVDNVLNKASDTYHGDKPSPLLADGVDPRTGQQLEWIFPDGRRAVLSNFSAQQNLMRVMSGLSQLSGDPRYQKRAEDIVRYHFQNYQDPSGLLYWGGHRFVDLKTLQPEGPSEKEMVHELKNAYPYYDLMFSVDSDATARFIRGFWNAHVYDWRILETSRHGEYGKPMGALWESKFEQQPPFFATKGLSFLNAGNDLIYSASLLYKHQQDQGALTWAKRLADQYVLPRDAKTGLGVYQFTQALKREEPTDDADTHSKFGDRAQRQFGPEFGPTALEGNMMLKGRTSTLYSENALMQLQLGKDLGPQGQDLLKWTVDGLKAFAKYAYNDQDNTFRPMIANGQDLSNYTLPRDGYYGKKGTVLKPYKAGNEFLISYARAYAIDNDPLLWKVARGIANDQGLGDIGTAPGKEVKVNMDTTNSDPYALFALLDLYHASQVADYRKLAEKIGDNIIKIRYIDGFFMASSDRQYADVDAIEPYALLALEASLRNKPQAVAPFLNGAGFTEGAYRMDDGSARVSTRDNELFLLNVGEKLQPN | soluble |
| MVERMERTMPTTAVRDATSSRRFQPGQAVVGRVERVEEMETEERAALVRAGGQLVRARLEAPLAVGRLYLFEIHERQGTIYWKAIPLSEPASAPSGEEAVRGWQKAWKLPDAALPVLRQALKAGAAATKEEIAALTEAVKETGQPDAAEDVLAHLFRRRLPFSSAVFRALWAAKTGVPLAEGLGKLKAAIAALSAHPAALKLIRAMEKFLSPPLSAYEAAVRLLLSGEEEAETARALLARLGLAPLPEDRRLALREAVQCRRFADIIRQLGLTDEEAFLERWAALDAAYQSGALPAAEAKLWAAARATRDPALSLFCWLRRAAVRLGLEDEAALVRVGKIEDLPSAPSLKRLLLRFLHESGSEGAKRAAEAILDQLDGMAIAAGGDGLIEHVWISFPLPLGGRSSDFAVCWQGRRKQGGPLDADYNRIVCCLTLEELGEVIVDMRVQRRIVHISIFHDDPRLAVAAARMAPLVKERFQAHGYALSGIDVKATRSAPPPPSVFLFADSCSEVDCQA | not soluble |
| MSLFDFFKNKGSAATATDRLKLILAKERTLNLPYMEEMRKEIIAVIQKYTKSSDIHFKTLDSNQSVETIEVEIILPR | not soluble |
| MSLNLLALPLRSEVELADARTRARHIAELLGLGNQDQVRVATVVSELARNVLLYAGSGQVTFSVRDEAGRSTLLIEVRDQGPGLGHLDEVLGGQYRSKTGMGVGLTGTRRLMDEFDIQTAPGKGTVVRVGKHLPAVVGDAEQRRVAEVLGSSGPRDLLTALSVQNRDLLETLAALNEREERLQVLNQELQDTNRGVVALYAELEEKAERLREANGLKTTFLSYMSHELRTPLHSMLGLARILSGQLDGPLNPEQLKQVQLLQGAAGDLLEMVNGLLDLAKMEAGKTDVDVTTFEVRELFGTLRALFLPLLDNPAVNLIFEDAAGFPPLTTDQRKVEQVLRNFIANALKFTAAGEVRVTAQLLPSGDRVRFTVQDTGIGLSDEEQAQLFQDFSQVGRPGRPAGTGLGLSIARKFTELLGGRVGVQSAPGAGAEFSAELPVVYPGVGAAKRPRALLIDDSEADRYVLTTLLTRAGYEVDEVAYAEPGLEQARSGAYDAVVLDLNLPDRSGLDVLRALRENAGTRSLPVLVVIAAALDAAERAALETLGASVHLKEALYQDEQVLFASLPSGSVHYGEAEGHHHHHH | soluble |
| MGSDKIHHHHHHMCRLLAYLGSPVSLEHLLYKPEHSLIVQSYKPREMTSGAVNADGFGVGWYHSQKDIEPFTYKNTLPIWNDINLLSLSRYIESKCVLAYVRSATSEQAVDFANCQPFKHQQQLFIHDGRIENFHKTLHRKIRSTLTQDFYEKINGNTDSEHIFALLLSQSQINKHRPPEYALRTTLLTLLEMAKRYQVEASINVIFSDGHRLIASRFATTSLAPSLYWVRDDPTFSNSVIIASEPLFIGNWNAFPENSIITVGADCEIQIEQI | not soluble |
